Measured values from patent US20130115645.

Target: human prothrombin (Enzyme Research Laboratories), P00734

B1: Fibrinogen-like protein 2 (FGL-2)/fibroleukin, human (protein)
chain: NNETEEIKDERAKDVCPVRLESRGKCEEAGECPYQVSLPPLTIQLPKQFSRIEEVFKEVQNLKEIVNSLKKSCQDCKLQADDNGDPGRNGLLLPSTGAPGEVGDNRVRELESEVNKLSSELKNAKEEINVLHGRLEKLNLVNMNNIENYVDSKVANLTFVVNSLDGKCSKCPSQEQIQSRPVQHLIYKDCSDYYAIGKRSSETYRVTPDPKNSSFEVYCDMETMGGGWTVLQARLDGSTNFTRTWQDYKAGFGNLRREFWLGNDKIHLLTKSKEMILRIDLEDFNGVELYALYDQFYVANEFLKYRLHVGNYNGTAGDALRFNKHYNHDLKFFTTPDKDNDRYPSGNCGLYYSSGWWFDACLSANLNGKYYHQKYRGVRNGIFWGTWPGVSEAHPGGYKSSFKEAKMMIRPKHFKP
  FGL-2 prothrombinase activity (thrombin generation assay, chromogenic substrate, 405 nm): FGL-2 prothrombinase activity in HUVEC was only observed following maximal stimulation with TNFα
